Paper doi:10.1101/840439 (bioRxiv, 2019)

Target: the molecule itself
Assay: crystal structure

B1: BchL (L-protein of dark-operative protochlorophyllide oxidoreductase, DPOR), wild type (enzyme, Rhodobacter sphaeroides, UniProt Q9RFD6 1-297, looked up)
chain: MSPKDLTIPTGADGEGSVQVHLDEADKITGAKVFAVYGKGGIGKSTTSSNLSAAFSILGKRVLQIGCDPKHDSTFTLTGSLVPTVIDVLKDVDFHPEELRPEDFVFEGFNGVMCVEAGGPPAGTGCGGYVVGQTVKLLKQHHLLDDTDVVIFDVLGDVVCGGFAAPLQHADQAVVVTANDFDSIYAMNRIIAAVQAKSKNYKVRLAGCVANRSRATDEVDRFCKETNFRRLAHMPDLDAIRRSRLKKKTLFEMDEDQDVLAARAEYIRLAESLWRGLDPIDPHSLPDRDIFELLGFD
With B1 the “stoichiometry N” value was 2.
